# In article PMC2903445 (Proteins, 2010):
# Changes are numbered by the printed parent chain. Names may count otherwise. Where two headings read alike, the source gives them in different places. Ends that are not written are not given here.
# B1: GoLoco motif of RGS14 (496-531, Tenascin fusion) L503K (domain or fragment, UniProt O08773 496-531, looked up)
# chain: DIEGLVEKLNRVQSSGAHDQRGLLRKEDLVLPEFLQ
# modifications: also: 6-IAF fluorescein on the unique Cys (not in given chain)
# B2: GoLoco motif of RGS14 (496-531, Tenascin fusion) L519T (domain or fragment, UniProt O08773 496-531, looked up)
# chain: B1 chain with K8L, L24T
# modifications: also: 6-IAF fluorescein on the unique Cys (not in given chain)
# B3: GoLoco motif of RGS14 (496-531, Tenascin fusion) L504A, F529W (domain or fragment, UniProt O08773 496-531, looked up)
# chain: B1 chain with K8L, L9A, F34W
# modifications: also: 6-IAF fluorescein on the unique Cys (not in given chain)
# B4: GoLoco motif of RGS14 (496-531, Tenascin fusion) V507M (domain or fragment, UniProt O08773 496-531, looked up)
# chain: B1 chain with K8L, V12M
# modifications: also: 6-IAF fluorescein on the unique Cys (not in given chain)
# B5: GoLoco motif of RGS14 (496-531, Tenascin fusion) L504A (domain or fragment, UniProt O08773 496-531, looked up)
# chain: B1 chain with K8L, L9A
# modifications: also: 6-IAF fluorescein on the unique Cys (not in given chain)
# B6: GoLoco motif of RGS14 (residues 496-531) expressed as a fusion to Tenascin, wild type (domain or fragment, UniProt O08773 496-531, looked up)
# chain: B1 chain with K8L
# modifications: also: 6-IAF fluorescein on the unique Cys (not in given chain)
# Assays:
# Test in all cases: fluorescence polarisation
# Gαi1 K248E, S252L = Gαi1 K248E, S252L (human, UniProt P63096 26-354, K248E | S252L)
# [1] = target: T1, Gαi1 (N-terminal-truncated, hexahistidine-tagged human Gαi1), wild type (human, UniProt P63096 26-354)
# Gαi1 I78S, A111Q = Gαi1 I78S, A111Q (human, UniProt P63096 26-354, I78S | A111Q)
# [2] = target: T1, Gαi1 (N-terminal-truncated, …); remark: listed apart in the source
# [3] = target: Gαi1 F223V, L249F, Q147L, E245L (human, UniProt P63096 26-354, F223V | L249F | Q147L | E245L)
# Gαi1 E245L, L249A = Gαi1 E245L, L249A (human, UniProt P63096 26-354, E245L | L249A)
# Gαi1 F223V, L249F [4] = target: T2, Gαi1 F223V, L249F (human, UniProt P63096 26-354, F223V | L249F)
# Gαi1 F223V, L249F [5] = target: T2, Gαi1 F223V, L249F; remark: listed apart in the source
# T1 sequence (P63096 26-354): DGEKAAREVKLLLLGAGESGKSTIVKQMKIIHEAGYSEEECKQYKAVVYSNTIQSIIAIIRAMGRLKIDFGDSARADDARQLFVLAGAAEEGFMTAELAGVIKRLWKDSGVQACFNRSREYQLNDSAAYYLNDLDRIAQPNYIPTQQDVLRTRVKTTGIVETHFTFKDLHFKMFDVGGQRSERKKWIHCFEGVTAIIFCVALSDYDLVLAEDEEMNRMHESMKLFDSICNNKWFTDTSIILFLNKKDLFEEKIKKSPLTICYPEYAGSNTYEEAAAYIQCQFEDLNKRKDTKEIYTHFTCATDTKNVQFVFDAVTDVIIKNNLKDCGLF
# T2 sequence (P63096 26-354 F223V/L249F): as the sequence (P63096 26-354) above, with F198V, L224F counted along it
# Chain of Gαi1 K248E, S252L (P63096 26-354 K248E/S252L): as the sequence (P63096 26-354) above, with K223E, S227L counted along it
# Chain of Gαi1 I78S, A111Q (P63096 26-354 I78S/A111Q): as the sequence (P63096 26-354) above, with I53S, A86Q counted along it
# Chain of Gαi1 E245L, L249A (P63096 26-354 E245L/L249A): as the sequence (P63096 26-354) above, with E220L, L224A counted along it
# Chain of Gαi1 F223V, L249F, Q147L, E245L (P63096 26-354 Q147L/F223V/E245L/L249F): as the sequence (P63096 26-354) above, with Q122L, F198V, E220L, L224F counted along it
Binder,"Kd (Gαi1 K248E, S252L)",Kd [1],also measured
B1,80 ± 10 nM,,
B2,,16000 ± 5000 nM,"Kd (Gαi1 I78S, A111Q): > 20 µM"
B3,,> 5000 nM,Kd [2]: ~5 µM; Kd [3]: 40 ± 100 nM
B4,,1040 ± 60 nM,"Kd (Gαi1 E245L, L249A): 50 ± 10 nM"
B5,,2400 ± 1000 nM,"Kd (Gαi1 F223V, L249F [4]): ~5 µM; Kd (Gαi1 F223V, L249F [5]): > 5 µM"
B6,320 ± 60 nM,100 ± 20 nM,
